Measurements taken from patent US10464978B2, “Peptides and combination of peptides for use in immunotherapy against ovarian cancer and other cancers” (immatics biotechnologies GmbH, priority 2015, dated 2019).

target: HLA-A*02:01 (Homo sapiens, UniProt P04439, D140Y/D185E/D98H/E176V/E277Q/G131W/G231S/I119V/I121R/I166T/I218V/L300P/L318F/N151K/N90K/P208A/P217A/Q86G/Q94H/R138H/R169H/T345S); experiment: MHC binding assay: UV-ligand exchange with beta2m ELISA (peptide exchange yield); conditions: binding to HLA-A*02:01
How it was run: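 Peptide-MHC complexes formed by UV-ligand exchange, a UV-cleavable peptide being replaced by the candidate peptide. Exchange products diluted 100-fold, captured on streptavidin-coated plates for 1h at 37° C, then detected with 2 ug/ml HRP anti-β2m (1h, 37° C) and TMB, absorbance 450 nm; value is exchange yield.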

| Peptide exchange (MHC class I binding score, peptide exchange yield) | Substance |
| --- | --- |
| “+++” (≥50 = +++) | 529 (LLADELITV; listed as Homo sapiens) [compound 529] |
| “+++” (≥50 = +++) | 530 (VMYADIGGMDI; listed as Homo sapiens) [compound 530] |
| “+++” (≥50 = +++) | 531 (YTLPIASSIRL; listed as Homo sapiens) [compound 531] |
| “+++” (≥50 = +++) | 537 (TLAPGEVLRSV; listed as Homo sapiens) [compound 537] |
| “++” (≥20% = ++) | 538 (LLLAHIIAL; listed as Homo sapiens) [compound 538] |
| “+++” (≥50 = +++) | 539 (ALFDAQAQV; listed as Homo sapiens) [compound 539] |
| “+++” (≥50 = +++) | 541 (SMLEPVPEL; listed as Homo sapiens) [compound 541] |
| “+++” (≥50 = +++) | 542 (RVWDISTVSSV; listed as Homo sapiens) [compound 542] |
| “+++” (≥50 = +++) | 543 (GLLPTPITQQASL; listed as Homo sapiens) [compound 543] |

The next lines start with the substance.

| Substance | Peptide exchange (MHC class I binding score, peptide exchange yield) |
| --- | --- |
| 511 (FLDPYCSASV; listed as Homo sapiens) [compound 511] | “++” (≥20% = ++) |
| 512 (SLSEIVPCL; listed as Homo sapiens) [compound 512] | “+++” (≥50 = +++) |
| 513 (SLWPSPEQL; listed as Homo sapiens) [compound 513] | “++” (≥20% = ++) |
| 514 (ILVDWLVQV; listed as Homo sapiens) [compound 514] | “+++” (≥50 = +++) |
| 515 (LLQELVLFL; listed as Homo sapiens) [compound 515] | “+++” (≥50 = +++) |
| 516 (AVGPASILKEV; listed as Homo sapiens) [compound 516] | “++” (≥20% = ++) |
| 517 (LLMPIPEGLTL; listed as Homo sapiens) [compound 517] | “+++” (≥50 = +++) |
| 518 (KLNAEVACV; listed as Homo sapiens) [compound 518] | “+++” (≥50 = +++) |
| 519 (GLLHLTLLL; listed as Homo sapiens) [compound 519] | “+++” (≥50 = +++) |
| 520 (LAVHPSGVAL; listed as Homo sapiens) [compound 520] | “+” (≥10% = +) |
| 521 (MLLTKLPTI; listed as Homo sapiens) [compound 521] | “+++” (≥50 = +++) |
| 522 (TLWYRSPEV; listed as Homo sapiens) [compound 522] | “++” (≥20% = ++) |
| 523 (YQIPRTFTL; listed as Homo sapiens) [compound 523] | “++” (≥20% = ++) |
| 524 (ALIENLTHQI; listed as Homo sapiens) [compound 524] | “++” (≥20% = ++) |
| 525 (VLLEAGEGLVTI; listed as Homo sapiens) [compound 525] | “+++” (≥50 = +++) |
| 526 (RLAEVGQYEQV; listed as Homo sapiens) [compound 526] | “++” (≥20% = ++) |
| 527 (FLLEPGNLEV; listed as Homo sapiens) [compound 527] | “++++” (≥75% = ++++) |
| 528 (SVAEGRALMSV; listed as Homo sapiens) [compound 528] | “+++” (≥50 = +++) |
